In the supplement of paper PMC5998384:

Tests used:
HeLa Kyoto [1] = experiment: solubility change mitosis vs G1/S (difference of NP-40 vs SDS log2 ratios) (log2 ratio difference); higher = more soluble in mitosis
HeLa Kyoto [2] = experiment: melting temperature (median over replicates), in situ; higher = more thermally stable
HeLa Kyoto [3] = experiment: solubility in G1/S (NP-40 vs SDS abundance) (log2 ratio); higher = more soluble; conditions: cell cycle stage: G1/S
HeLa Kyoto [4] = experiment: thermal stability score vs G1/S (z-score of summed log2 fold changes over temperatures); higher = more thermally stable than in G1/S
[5] = cell cycle stage: early G1 (4.5 h after nocodazole release)
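For melting temperature (median over replicates), in situ in this document: HeLa Kyoto cells synchronized by double thymidine or nocodazole block, proteins quantified by TMT10plex mass spectrometry, three independent biological replicates.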
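For solubility change mitosis vs G1/S (difference of NP-40 vs SDS log2 ratios) in this document: synchronized HeLa Kyoto cells (double thymidine block for G1/S, nocodazole release for mitosis), protein amounts in NP-40 versus SDS lysates quantified by mass spectrometry, three biological replicates.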
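For solubility in G1/S (NP-40 vs SDS abundance) in this document: HeLa Kyoto cells arrested at G1/S by double thymidine block, proteins quantified by TMT10plex mass spectrometry in mild NP-40 versus SDS extracts, three biological replicates.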
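For thermal stability score vs G1/S (z-score of summed log2 fold changes over temperatures) in this document: synchronized HeLa Kyoto cells, proteins quantified by TMT10plex mass spectrometry, three biological replicates, mitosis taken 0.5 h after nocodazole release, G1/S directly after double thymidine block.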

Row | Sequence | solubility change mitosis (log2) (HeLa Kyoto [1]) | melting temperature (HeLa Kyoto [2]; cell cycle stage: G1/S) [°C] | melting temperature (HeLa Kyoto [2]; cell cycle stage: mitosis) [°C] | solubility in G1/S (log2) (HeLa Kyoto [3]) | thermal stability score (HeLa Kyoto [4]; [5]) | thermal stability score (HeLa Kyoto [4]; cell cycle stage: mitosis)
1 | MRRFLRPGHDPVRERLKRDLFQFNKTVEHGFPHQPSALGYSPSLRILAIGTRSGAIKLYGAPGVEFMGLHQENNAVTQIHLLPGQCQLVTLLDDNSLHLWSLKVKGGASELQEDESFTLRGPPGAAPSATQITVVLPHSSCELLYLGTESGNVFVVQLPAFRALEDRTISSDAVLQRLPEEARHRRVFEMVEALQEHPRDPNQILIGYSRGLVVIWDLQGSRVLYHFLSSQQLENIWWQRDGRLLVSCHSDGSYCQWPVSSEAQQPEPLRSLVPYGPFPCKAITRILWLTTRQGLPFTIFQGGMPRASYGDRHCISVIHDGQQTAFDFTSRVIGFTVLTEADPAATFDDPYALVVLAEEELVVIDLQTAGWPPVQLPYLASLHCSAITCSHHVSNIPLKLWERIIAAGSRQNAHFSTMEWPIDGGTSLTPAPPQRDLLLTGHEDGTVRFWDASGVCLRLLYKLSTVRVFLTDTDPNENFSAQGEDEWPPLRKVGSFDPYSDDPRLGIQKIFLCKYSGYLAVAGTAGQVLVLELNDEAAEQAVEQVEADLLQDQEGYRWKGHERLAARSGPVRFEPGFQPFVLVQCQPPAVVTSLALHSEWRLVAFGTSHGFGLFDHQQRRQVFVKCTLHPSDQLALEGPLSRVKSLKKSLRQSFRRMRRSRVSSRKRHPAGPPGEAQEGSAKAERPGLQNMELAPVQRKIEARSAEDSFTGFVRTLYFADTYLKDSSRHCPSLWAGTNGGTIYAFSLRVPPAERRMDEPVRAEQAKEIQLMHRAPVVGILVLDGHSVPLPEPLEVAHDLSKSPDMQGSHQLLVVSEEQFKVFTLPKVSAKLKLKLTALEGSRVRRVSVAHFGSRRAEDYGEHHLAVLTNLGDIQVVSLPLLKPQVRYSCIRREDVSGIASCVFTKYGQGFYLISPSEFERFSLSTKWLVEPRCLVDSAETKNHRPGNGAGPKKAPSRARNSGTQSDGEEKQPGLVMERALLSDERVLKEIQSTLEGDRGSGNWRSHRAAVGCSLSNGGAE [LLGL2] | -0.0143 | 51.1 | 51.5 | -0.27 | -1.83 | -2.52
2 | MRRLGPFHPRVHWAAPPSLSSGLHRLLFLRGTRIPSSTTLSPPRHDSLSLDGGTVNPPRVREPTGREAFGPSPASSDWLPARWRNGRGGRPRARLCSGWTAAEEARRNPTLGGLLGRQRLLLRMGGGRLGAPMERHGRASATSVSSAGEQAAGDPEGRRQEPLRRRASSASVPAVGASAEGTRRDRLGSYSGPTSVSRQRVESLRKKRPLFPWFGLDIGGTLVKLVYFEPKDITAEEEEEEVESLKSIRKYLTSNVAYGSTGIRDVHLELKDLTLCGRKGNLHFIRFPTHDMPAFIQMGRDKNFSSLHTVFCATGGGAYKFEQDFLTIGDLQLCKLDELDCLIKGILYIDSVGFNGRSQCYYFENPADSEKCQKLPFDLKNPYPLLLVNIGSGVSILAVYSKDNYKRVTGTSLGGGTFFGLCCLLTGCTTFEEALEMASRGDSTKVDKLVRDIYGGDYERFGLPGWAVASSFGNMMSKEKREAVSKEDLARATLITITNNIGSIARMCALNENINQVVFVGNFLRINTIAMRLLAYALDYWSKGQLKALFSEHEGYFGAVGALLELLKIP [PANK2] | -0.196 | 53.1 | 55.1 | 0.04 | 0.0148 | 0.653
3 | MRRVTLFLNGSPKNGKVVAVYGTLSDLLSVASSKLGIKATSVYNGKGGLIDDIALIRDDDVLFVCEGEPFIDPQTDSKPPEGLLGFHTDWLTLNVGGRYFTTTRSTLVNKEPDSMLAHMFKDKGVWGNKQDHRGAFLIDRSPEYFEPILNYLRHGQLIVNDGINLLGVLEEARFFGIDSLIEHLEVAIKNSQPPEDHSPISRKEFVRFLLATPTKSELRCQGLNFSGADLSRLDLRYINFKMANLSRCNLAHANLCCANLERADLSGSVLDCANLQGVKMLCSNAEGASLKLCNFEDPSGLKANLEGANLKGVDMEGSQMTGINLRVATLKNAKLKNCNLRGATLAGTDLENCDLSGCDLQEANLRGSNVKGAIFEEMLTPLHMSQSVR [KCTD9] | -0.2 | 52.3 | 51 | 0.0627 | -0.393 | -1.4
4 | MRSLLLLSAFCLLEAALAAEVKKPAAAAAPGTAEKLSPKAATLAERSAGLAFSLYQAMAKDQAVENILVSPVVVASSLGLVSLGGKATTASQAKAVLSAEQLRDEEVHAGLGELLRSLSNSTARNVTWKLGSRLYGPSSVSFADDFVRSSKQHYNCEHSKINFRDKRSALQSINEWAAQTTDGKLPEVTKDVERTDGALLVNAMFFKPHWDEKFHHKMVDNRGFMVTRSYTVGVMMMHRTGLYNYYDDEKEKLQIVEMPLAHKLSSLIILMPHHVEPLERLEKLLTKEQLKIWMGKMQKKAVAISLPKGVVEVTHDLQKHLAGLGLTEAIDKNKADLSRMSGKKDLYLASVFHATAFELDTDGNPFDQDIYGREELRSPKLFYADHPFIFLVRDTQSGSLLFIGRLVRPKGDKMRDEL [SERPINH1] | -0.0819 | 54.2 | 55.2 | 0.232 | 4.47 | 4.77
5 | MRSRSNSGVRLDGYARLVQQTILCYQNPVTGLLSASHEQKDAWVRDNIYSILAVWGLGMAYRKNADRDEDKAKAYELEQNVVKLMRGLLQCMMRQVAKVEKFKHTQSTKDSLHAKYNTATCGTVVGDDQWGHLQVDATSLFLLFLAQMTASGLRIIFTLDEVAFIQNLVFYIEAAYKVADYGMWERGDKTNQGIPELNASSVGMAKAALEAIDELDLFGAHGGRKSVIHVLPDEVEHCQSILFSMLPRASTSKEIDAGLLSIISFPAFAVEDVNLVNVTKNEIISKLQGRYGCCRFLRDGYKTPREDPNRLHYDPAELKLFENIECEWPVFWTYFIIDGVFSGDAVQVQEYREALEGILIRGKNGIRLVPELYAVPPNKVDEEYKNPHTVDRVPMGKVPHLWGQSLYILSSLLAEGFLAAGEIDPLNRRFSTSVKPDVVVQVTVLAENNHIKDLLRKHGVNVQSIADIHPIQVQPGRILSHIYAKLGRNKNMNLSGRPYRHIGVLGTSKLYVIRNQIFTFTPQFTDQHHFYLALDNEMIVEMLRIELAYLCTCWRMTGRPTLTFPISRTMLTNDGSDIHSAVLSTIRKLEDGYFGGARVKLGNLSEFLTTSFYTYLTFLDPDCDEKLFDNASEGTFSPDSDSDLVGYLEDTCNQESQDELDHYINHLLQSTSLRSYLPPLCKNTEDRHVFSAIHSTRDILSVMAKAKGLEVPFVPMTLPTKVLSAHRKSLNLVDSPQPLLEKVPESDFQWPRDDHGDVDCEKLVEQLKDCSNLQDQADILYILYVIKGPSWDTNLSGQHGVTVQNLLGELYGKAGLNQEWGLIRYISGLLRKKVEVLAEACTDLLSHQKQLTVGLPPEPREKIISAPLPPEELTKLIYEASGQDISIAVLTQEIVVYLAMYVRAQPSLFVEMLRLRIGLIIQVMATELARSLNCSGEEASESLMNLSPFDMKNLLHHILSGKEFGVERSVRPIHSSTSSPTISIHEVGHTGVTKTERSGINRLRSEMKQMTRRFSADEQFFSVGQAASSSAHSSKSARSSTPSSPTGTSSSDSGGHHIGWGERQGQWLRRRRLDGAINRVPVGFYQRVWKILQKCHGLSIDGYVLPSSTTREMTPHEIKFAVHVESVLNRVPQPEYRQLLVEAIMVLTLLSDTEMTSIGGIIHVDQIVQMASQLFLQDQVSIGAMDTLEKDQATGICHFFYDSAPSGAYGTMTYLTRAVASYLQELLPNSGCQMQ [PHKA2] | -0.229 | 52.6 | 51.7 | 0.00161 | 0.315 | -0.217
